In the supplement of paper PMC10567573:
± gives the standard deviation.

Assay: protein stability index of a GFP-peptide fusion (GPS, HEK-293T) (PSI 1-6); higher = more stable
[1] = treatment: DMSO, c terminus: a fixed tail appended
[2] = treatment: MLN4924 1 uM, 8 h, c terminus: a fixed tail appended
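Note: 24-mer peptide tiles fused after GFP, lentivirally expressed, FACS-sorted into six equal bins by GFP/DsRed ratio, decoded by Illumina sequencing, PSI is the read-weighted mean bin number.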

Sequence | protein stability index [1] | protein stability index [2] | protein stability index (treatment: DMSO, c terminus: native) | protein stability index (treatment: MLN4924 1 uM, 8 h, c terminus: native)
LVHVMERSLSPSLSSVDMRMTSSP [RAD54B] | 2.51 ± 0.34 | 2.58 ± 0.36 | – | –
HLKSSRNSTSVKKKSSRNIFSIVF [P2RY14] | 2.39 ± 0.48 | 2.13 ± 0.55 | – | –
AVQRLEGALWGLQAQAVQTEQAVA [SCARA5] | 2.89 ± 0.19 | 3.01 ± 0.34 | – | –
RMQVLKRQVQSLMVHQRKLEAELL [SMARCE1] | 2.17 ± 0.27 | 2.6 ± 0.45 | – | –
LLRQQLMRAQAQEQERRERREQAA [TFE3] | 3.82 ± 0.27 | 4.2 ± 0.15 | – | –
MVHINRALKLIIRLFLVEDLVDSL [RTN3] | 2.88 ± 0.31 | 2.92 ± 0.53 | – | –
LEKGSFVGNISKDLGLAPRELAER [PCDHGA10] | 4.43 ± 0.35 | 4.54 ± 0.33 | – | –
VWMLMLLLAVPNIILTNQSVREVT [P2RY14] | 3.27 ± 0.3 | 2.96 ± 0.46 | – | –
AKVTGEVLDILTRLPESVERLTGV [FLOT1] | 2.98 ± 0.37 | 3.17 ± 0.34 | – | –
GTWVTFGGQITDEMAEQLMTLAYD [KCNAB2] | 2.17 ± 0.37 | 2.28 ± 0.29 | – | –
SIKPEASQMPPPAGGTSDDPEPSG [SCNN1D] | 5.43 ± 0.15 | 5.57 ± 0.28 | – | –
PNPSKVLQQLLVLQPEQQLNIYKT [CDS1] | 2.38 ± 0.33 | 2.44 ± 0.3 | – | –
QEPPTTDSQEAQSPGHSSAGQEGE [TOR1AIP2] | 5.67 ± 0.25 | 5.56 ± 0.26 | – | –
LKRSIPQVSPVRRAPSRRHGVRAK [CPN1] | 4.58 ± 0.23 | 4.67 ± 0.17 | – | –
TFPDLESEFQAALSRKVAELVHFL [MAGEA3] | 2.34 ± 0.37 | 2.45 ± 0.33 | – | –
ALKKSADWVSDWSSRPENIPPKEF [BNIP3L] | 3.55 ± 0.23 | 3.77 ± 0.18 | – | –
LKQLKHPNLVNLIEVFRRKRKMHL [CDKL4] | 2.44 ± 0.43 | 2.58 ± 0.3 | – | –
SEDTLTIHGLPTEGYQALYHAVVE [C22orf31] | 3.19 ± 0.27 | 3.24 ± 0.36 | – | –
SFPLEWAPQNLTRWTFEKACHPFL [TOR1AIP2] | 2.12 ± 0.093 | 2.31 ± 0.12 | – | –
QKVASNHSPFSSESRALSTSSNLG [TBX5] | 4.19 ± 0.17 | 4.29 ± 0.085 | – | –
TDIKDESCCMTEEIFGPVTCVVPF [ALDH8A1] | 3.53 ± 0.23 | 3.48 ± 0.3 | – | –
TNSTPLRAACFDGHLEVVRYLVGE [FEM1A] | 2.32 ± 0.18 | 2.4 ± 0.31 | – | –
VAGVLPDIEQFFNIGDSSSGLIQT [SPNS1] | 3.16 ± 0.25 | 3.32 ± 0.43 | – | –

Sequence | protein stability index [1] | protein stability index [2] | protein stability index (treatment: DMSO, c terminus: native) | protein stability index (treatment: MLN4924 1 uM, 8 h, c terminus: native)
MVVIHKEIPTGKKDHECSECGKTF [ZNF232] | 3.07 ± 0.4 | 3.28 ± 0.2 | – | –
ISEEGHHYLIFDLVTGGELFEDIV [CAMK2A] | 2.47 ± 0.62 | 2.13 ± 0.29 | – | –
GTAITSQYLAERYKVNTPMLQSFI [SLC35F2] | 2.58 ± 0.57 | 2.26 ± 0.38 | – | –
VYSLQDFDTLATVGTGTFGRVHLV [PRKX] | 2.42 ± 0.079 | 2.42 ± 0.37 | – | –
VLEYRRTNFEGPPRLKEDQPWMVI [FSD1] | 2.12 ± 0.44 | 2.35 ± 0.39 | – | –
VAQTSLEEFNVLEMEVMRRQLYAV [FATE1] | 2.31 ± 0.37 | 2.21 ± 0.44 | – | –
SVPLDPMERPMSQADLELDYNPPR [CBY2] | 4.75 ± 0.6 | 4.98 ± 0.23 | – | –
EYVAIKLEPMKSRAPQLHLEYRFY [CSNK1G3] | 3.3 ± 0.41 | 2.93 ± 0.64 | – | –
DDYPSRGYSDRDGYGRDRDYSDHP [RBMX] | 4.85 ± 0.3 | 4.87 ± 0.22 | – | –
AATDITGFGILGHSQNLAKQQRNE [SEPHS2] | 4.68 ± 0.38 | 4.57 ± 0.31 | – | –
AVVKPGNTKEKIAFFASHQCSNRI [FBXO34] | 3.81 ± 0.24 | 3.83 ± 0.35 | – | –
LTCALMLLNTDLHGHNIGKKMSCQ [PSD2] | 2.54 ± 0.49 | 2.41 ± 0.74 | – | –
SIPKLKLTRPVPAGADLPPPKIRL [PWWP2B] | 3.45 ± 0.23 | 3.63 ± 0.35 | – | –
EDLMPLAAAYGHALEQYEGESWRE [P3H4] | 4.59 ± 0.53 | 4.86 ± 0.17 | – | –
GAPSVGQPGAGFGMPPAGTGMPMM [SNAP91] | 3.61 ± 0.23 | 3.76 ± 0.23 | – | –
FDDGDDIMATLGFGDSPKAEKRQI [FBF1] | 3.97 ± 0.24 | 4.32 ± 0.19 | – | –
QGEGPEAGDAEVCPTPARLATTEK [NOP53] | 5.46 ± 0.27 | 5.44 ± 0.19 | – | –
PFNKVQSARFWIPGEPNNAGNNEH [CD207] | 3.92 ± 0.35 | 3.93 ± 0.17 | – | –
PLGNTPMMNQSMMGMNMNIGMSAA [CLINT1] | 3.07 ± 0.21 | 2.9 ± 0.24 | – | –
TRFTEEYQLFEELGKGAFSVVRRC [CAMK2A] | 2.63 ± 0.39 | 2.54 ± 0.26 | – | –
NIQETHRLYRLKLEELTKLQNNCT [TMEM120A] | 2.92 ± 0.19 | 3.08 ± 0.29 | – | –
ELETVDFKDKLEETKGQINNSIKD [SERPINB5] | 5.29 ± 0.46 | 5.51 ± 0.12 | – | –
DQNRDGFIDKEDLKDTYASLGKTN [MYL5] | 5.12 ± 0.092 | 5.2 ± 0.14 | – | –

Sequence | protein stability index [1] | protein stability index [2] | protein stability index (treatment: DMSO, c terminus: native) | protein stability index (treatment: MLN4924 1 uM, 8 h, c terminus: native)
GKKVAVVLMDTQGAFDSQSTVKDC [ATL3] | 3.46 ± 0.87 | 3.66 ± 0.44 | – | –
GDIASGYHYGVASCEACKAFFKRT [ESRRG] | 2.76 ± 0.38 | 3.02 ± 0.41 | – | –
CVTLMQGHEGSVSSCHFARDSSFL [WDR88] | 2.28 ± 0.57 | 2.39 ± 0.13 | – | –
IHPDEDISLEERRAQLPKYQRNLP [ZNF207] | 4.19 ± 0.27 | 4.46 ± 0.31 | – | –
AEDDHMLIQNEYRNGGSLADAISE [WEE1] | 5.06 ± 0.27 | 4.9 ± 0.43 | – | –
AIIGWLLTTCTSNVAASNAKLALF [INTS3] | 3.13 ± 0.21 | 3 ± 0.45 | – | –
LQRGEALSALDSKANNLSSLSKKY [SEC22B] | 4.46 ± 0.11 | 4.34 ± 0.23 | – | –
SPDVLQMLKIHRSDPQLIVQLRFC [TRADD] | 2.73 ± 0.58 | 2.56 ± 0.6 | – | –
ANLPVPTIAAIDGLALGGGLELAL [AUH] | 2.35 ± 0.37 | 2.02 ± 0.55 | – | –
MRAAALCDKHSKLFEEPEDPSNRS [PPP2R2C] | 5.14 ± 0.12 | 5.17 ± 0.12 | – | –
IFGSNKWTTEQQQRFHEICSNLVK [ARL6IP1] | 2.98 ± 0.13 | 3.03 ± 0.14 | – | –
MNYMPGTASLIEDIDKKHLVLLRD [LSM1] | 3.15 ± 0.16 | 3.27 ± 0.32 | – | –
PEIQKVRAQEREQIKALNNKFASF [KRT71] | 3.78 ± 0.32 | 3.86 ± 0.44 | – | –
LYGLGSGSSYVQNGTGNAYEEEAN [CNOT7] | 4.74 ± 0.2 | 4.84 ± 0.24 | – | –
TTTVTAVTAEVDLFGDAFAASPGE [SNAP91] | 4.54 ± 0.13 | 4.59 ± 0.28 | – | –
LCREEPVVQGPDGRLELKPLLLRL [FANCE] | 2.19 ± 0.25 | 2.48 ± 0.15 | – | –
GLASWPLARGIHVAGILSLLLGTA [POMT2] | 2.52 ± 0.52 | 2.18 ± 0.49 | – | –
MIRESETKKGFYSLSVRHRQVKHY [SLA] | 2.59 ± 0.44 | 2.94 ± 0.13 | – | –
LLVFLILVGIFILAVSRPRSSPDD [SCARA5] | 2.08 ± 0.43 | 2.07 ± 0.19 | – | –
STLKTLLFFTALMITVPIGLYFTT [VMA21] | 2.45 ± 0.19 | 2.31 ± 0.19 | – | –
LRVHLKMVDSFHRTSLQYGIMCLK [PPFIA4] | 2.99 ± 0.047 | 2.9 ± 1 | – | –
RELREVRRVPPRFSIPPTNHEIMP [PTPRD] | 3.74 ± 0.093 | 3.88 ± 0.14 | – | –
VIRLKQEQHVHNEKSVLKEVSHPF [PRKX] | 3.36 ± 0.062 | 3.62 ± 0.36 | – | –

Sequence | protein stability index [1] | protein stability index [2] | protein stability index (treatment: DMSO, c terminus: native) | protein stability index (treatment: MLN4924 1 uM, 8 h, c terminus: native)
QSSGKVMYFSSLFPYVVLACFLVR [SLC6A17] | 2.6 ± 0.76 | 2.41 ± 0.24 | – | –
DIVLMAQALEKIFLQKVAQMPQEE [BRD3] | 2.36 ± 1.6 | 3 ± 1 | – | –
DGKGKINKEYIKRLLMSQADKMTA [MYL5] | 2.97 ± 0.25 | 3.13 ± 0.33 | – | –
TSECPSDKDKSPESHKAKNESWIK [C10orf62] | 3.58 ± 0.65 | 4.18 ± 0.7 | – | –
KAAALPPFPLGASAQNGLASSLPA [PLAGL1] | 3.75 ± 0.21 | 3.82 ± 0.21 | – | –
HRRRTICGTPNYLSPEVLNKQGHG [PLK2] | 3.99 ± 0.19 | 4.17 ± 0.17 | – | –
LNLGSGTGYLSSMVGLILGPFGVN [PCMTD2] | 2.42 ± 0.51 | 2.48 ± 0.38 | – | –
ILGSGEEGPQVGPSAAQTLRSFCA [ADAMTS4] | 3.7 ± 0.5 | 3.95 ± 0.53 | – | –
ESVTHHDYRMELAQAGTPAPTKPH [SPAG8] | 4.95 ± 0.26 | 4.99 ± 0.12 | – | –
PVHLIDKLPLPVTIKSHLKSFSMA [RAB40C] | 2.3 ± 0.081 | 2.34 ± 0.039 | – | –
EHSWIKAIRRRNVRGEDSGRKPER [DAPK3] | 3.62 ± 1.7 | 4.07 ± 0.23 | – | –
KKNWRRVYKSLLLLAYLIRNGSER [CLINT1] | 2.35 ± 0.65 | 2.44 ± 0.29 | – | –
CEKYLPGYYSEKLEAIQLDGEILF [TBC1D10A] | 2.14 ± 0.19 | 2.12 ± 0.24 | – | –
GISVPSGLFVPSLLCGAAFGRLVA [CLCN6] | 2.62 ± 1.2 | 2.51 ± 0.97 | – | –
PGGETEALTRLERHLERKAWVANF [CRY1] | 3.04 ± 0.36 | 3.07 ± 0.39 | – | –
LEAQPYEAVFLRAVKLYNSGDFRS [P3H4] | 2.42 ± 0.27 | 2.23 ± 0.28 | – | –
PALEEAPDSHQKRPQHSHSNKKRP [ELOA2] | 5.52 ± 0.25 | 5.33 ± 0.46 | – | –
VGSGYRMSLVKRRFATGMYLVSC [FCHO1] | – | – | 2.89 ± 0.34 | 3.03 ± 0.4
WSIVGMAVVKGIQSSGKVMYFSSL [SLC6A17] | 2.94 ± 0.68 | 2.6 ± 0.78 | – | –
QKLNVFKNFIGLLQNQNFPYPVLF [NLN] | 2.89 ± 1.1 | 2.76 ± 0.46 | – | –
